Among the data in PMC2606688, “High-fidelity correction of genomic uracil by human mismatch repair activities” are Kd and binding signal values, retold here.

Where only a bound is given, the exact number is not on record here.

Data set [1] addresses T1, MSH2 (MutSα subunit);MSH6 (MutSα subunit) (Homo sapiens;Homo sapiens, UniProt P43246;P52701 1-934;1-1360, |). Description: EMSA; apparent Kd; homoduplex competitor EDL365/EDL366 in reaction; no Mg2+, 1 mM EDTA; 25 mM Tris pH 7.7, 100 mM KCl, 1 mM EDTA, 1 mM DTT, 7.5% glycerol, 10 fmol labeled duplex in 30 µl, homoduplex competitor, on ice 5 min; 6% native PAGE in 0.5x. Conditions: protein: recombinant;recombinant; tags: ;; copies: 1;1; label: 5'-32P on strand 1 (EDL56); blunt, 30 bp, single U•G mismatch.

The target in data set [2] is T1, MSH2 (MutSα subunit);MSH6 (MutSα …). Description: competition; unlabeled N1 at 50-fold molar excess against labeled N1 (EMSA); 25 mM Tris pH 7.7, 100 mM KCl, 1 mM EDTA, 1 mM DTT, 7.5% glycerol, 10 fmol labeled duplex in 30 µl, homoduplex competitor, on ice 5 min; 6% native PAGE in 0.5x. As to conditions: protein: recombinant;recombinant; tags: ;; copies: 1;1; label: 5'-32P on strand 1 (EDL56); blunt, 30 bp, single U•G mismatch. In general terms: A gel shift assay detects complexes by their altered migration in electrophoresis.

B1: U•G duplex (EDL56/EDL364) (dsDNA)
DNA 1: GCCGAATTTCTAGAATUGAAAGCTTGCTAG
DNA 2: CTAGCAAGCTTTCGATTCTAGAAATTCGGC
modifications: deoxyuridine at position 17 of strand 1, mispaired with G
Turning to B1, the Kd in data set [1] was 70 nM. The binding signal in data set [2] was > 5 fold decrease of probe binding.
